Legend:
[1] = molecular target: Nup358/RanBP2 cyclophilin domain (Nup358Cyp), human (human); experiment: ITC; recombinant CypA or Nup358Cyp against recombinant CA^NTD, without cyclosporine; done as described in ref. 25
[2] = molecular target: cyclophilin A (CypA), human (UniProt P62937); experiment: as above
[3] = molecular target: cyclophilin A (CypA), human (UniProt P62937); experiment: ITC

Sequence of cyclophilin A (CypA), human (P62937 whole entry): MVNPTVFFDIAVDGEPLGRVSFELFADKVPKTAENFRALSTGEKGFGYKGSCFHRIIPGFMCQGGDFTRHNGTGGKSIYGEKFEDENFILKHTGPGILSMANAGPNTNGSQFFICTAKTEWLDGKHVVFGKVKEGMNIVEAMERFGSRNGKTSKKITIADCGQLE

| Substance | Kd [1] [µM] | Kd [2] [µM] | Kd [3] [µM] | other: stoichiometry N [3] | other: ΔH [3] [kcal/mol] | other: ΔS ((cal/mol)/deg) [3] |
| --- | --- | --- | --- | --- | --- | --- |
| HIV-1 capsid N-terminal domain (CA^NTD) mutant N57A (domain or fragment) | 55 | 7 | – | – | – | – |
| HIV-1 capsid N-terminal domain (CA^NTD) mutant N74D (domain or fragment) | 95 | – | – | – | – | – |
| HIV-1 NL4.3 capsid N-terminal domain (CA^NTD), wild type P90A | – | – | 46 | 0.8 | -2.84 | 9.8 |
| HIV-1 NL4.3 capsid N-terminal domain (CA^NTD), wild type (domain or fragment) | 16 | 7 | – | – | – | – |
| HIV-1 NL4.3 capsid N-terminal domain (CA^NTD), wild type N74D | – | – | – | 0.8 | -9.8 | -10.3 |

Reference: article PMC3234246
